Luminescence score (fold increase over N1-MGF505-4R with empty N2 vector) data for one substance are collected here from article PMC10961335.

In this assay the target is MGF505-4R fused to NanoLuciferase fragment N1 (pDEST-N2H-N1) (African swine fever virus, Georgia 2007/1 strain). In words: split reporter (BiFC, NanoBiT).

Regarding “swine TRAF3 fused to NanoLuciferase fragment N2 (pDEST-N2H-N2) (natural protein)”, the luminescence score (fold increase over N1-MGF505-4R with empty N2 vector) came out at 8.5 fold.
